Tests used:
monkey GPC3-His protein [1] = biological target: T1, monkey GPC3-His protein (monkey); assay: SPR, antibody captured on Protein A chip, monkey GPC3-His analyte;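 also: run at 25 °C with 240 s association and up to 600 s dissociation, double-referenced, kinetics fitted to a 1:1 Langmuir binding model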
T1 construct: Bought recombinant protein; also called monkey GPC3 protein
Protocol: The flow cell was set at 25° C. The sample block was set at 16° C. Both were pretreated with the running buffer. In each cycle, first, the antibody to be tested was captured using the Protein A chip, and then a single concentration of GPC3 antigen protein was injected. […] The association was determined by injecting different concentrations of human GPC3-His in the solution and maintaining for 240 s, wherein the flow rate was 30 μL/min, and the protein was diluted at a 1:1 dilution ratio from 200 nM to obtain 5 concentrations in total. The dissociation phase was monitored for up to 600 s and triggered by switching from the sample solution to the running buffer. The surface was regenerated by washing with 10 mM glycine solution (pH 1.5) at a flow rate of 30 μL/min for 30 s. The difference in bulk refractive index was corrected by subtracting the responses obtained from the goat anti-human Fc surface. Blank injections (double reference) were also subtracted. To calculate the apparent KD and other kinetic parameters, the Langmuir 1:1 model was used.

human GPC3-His protein = biological target: T2, human GPC3-His protein (human, UniProt P51654 25-559); assay: SPR, antibody captured on Protein A chip, human GPC3-His analyte;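 also: measured at 25 °C flow cell, human GPC3-His injected at five concentrations up to 200 nM, 240 s association, up to 600 s dissociation, double-referenced, fitted to Langmuir 1:1 model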
T2 construct: also called human GPC3 protein; not shown: His tag

monkey GPC3-His protein [2] = biological target: T1, monkey GPC3-His protein; assay: ELISA, monkey GPC3-His coated;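 also: Plate-coated antigen at 1 µg/mL, antibody binding 2 h at 37 °C, detected with HRP-labeled secondary antibody and TMB, absorbance at 450 nm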
[3] = biological target: T3, monkey GPC3 on HEK293T-monkey GPC3 cells (monkey); assay: FACS on HEK293T-monkey GPC3 cells;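 also: flow cytometry binding of test antibodies to the cells, read as mean fluorescence intensity, with half-maximal concentration taken from fitted curves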
T3 construct: whole, on cells
Protocol: The desired cells were expanded to a logarithmic growth phase in a T-75 cell culture flask, the medium was removed by pipetting, and the cells were washed twice with a PBS buffer, and digested with trypsin. Then a complete medium was added to stop the digestion, and the cells were blown into a single cell suspension. After counting, the cells were centrifuged, and the cell pellet was resuspended with an FACS buffer (PBS+2% fetal bovine serum) to 2×10⁶ cells/mL. The cell resuspension solution was added to a 96-well FACS reaction plate at 50 μl/well, and a chimeric antibody sample to be tested was added at 50 μl/well for incubation at 4° C. for 1 h. […] After the plate was centrifuged and washed 3 times with a PBS buffer, 100 μl of the resulting solution was assayed and analyzed by FACS (FACS Canto™, purchased from BD Biosciences). Data analysis was performed by software (FlowJo) to obtain the mean fluorescence intensity (MFI) of the cells. Then, analysis was performed by software (GraphPad Prism8), data were fitted, and EC₅₀ values were calculated.

Binder | Kd (monkey GPC3-His protein [1]) | koff (monkey GPC3-His protein [1]) | kon (monkey GPC3-His protein [1]) | Kd (human GPC3-His protein) | koff (human GPC3-His protein) | kon (human GPC3-His protein) | OD450 at 0.0001 nM (monkey GPC3-His protein [2]) | OD450 at 0.001 nM (monkey GPC3-His protein [2]) | OD450 at 0.01 nM (monkey GPC3-His protein [2]) | OD450 at 0.1 nM (monkey GPC3-His protein [2]) | OD450 at 1 nM (monkey GPC3-His protein [2]) | OD450 at 10 nM (monkey GPC3-His protein [2]) | OD450 at 100 nM (monkey GPC3-His protein [2]) | EC50 [3] | Max MFI [3]
F1.83.6 (antibody, human IgG1, kappa, V domains shown, Human-murine chimeric antibody) VH: QVQLQQSGPELVKPGASVKISCKASGYAFSSSWMNWVKQRPGKGLEWIGRIYPGDGDTNYNGRFKGKATLTVDKSSSTAYMQLSSLTSEDSAVYFCARGGVFTMALDHWGQGTTLTVSS VL: DIQMTQSPSSLSASLGGKVTITCKASQDINKYIAWYQHKPGKGPRLLIHYTSTLQPGIPSRFSGSGSGRDYSFSISNLEPEDIATYYCLQYDNLFTFGGGTKLEIKR | 3.4 nM | 0.000503 s⁻¹ | 148000 M⁻¹ s⁻¹ | 5.88 nM | 0.000493 s⁻¹ | 83900 M⁻¹ s⁻¹ | 0.05 OD450 | 0.05 OD450 | 0.08 OD450 | 0.43 OD450 | 0.62 OD450 | 0.32 OD450 | 0.55 OD450 | 0.53 nM | 5880 MFI
F1.41.17 (antibody, human IgG1, kappa, V domains shown, Human-murine chimeric antibody) VH: EVQLVESGGDSVKPGGSLKLSCAASGFTFSSYGMSWVRQTPDKRLEWVATINSGGSYTYYQDSVKGRFTISRDNAKNTLYLQMSSLKSEDTAIYYCVRHHYGSSYDYFDYWGQGTTLTVSS VL: DIVMTQAAPSVPVMPGESVSISCRSSKSLLHSNGNTHLYWFLQRPGQSPQLLIYRMSNLASGVPDRFSGSGSGTAFTLRISRVEAEDVGVYYCMQHLEYPLTFGAGTKLELKR | 4.42 nM | 0.00213 s⁻¹ | 482000 M⁻¹ s⁻¹ | 7.91 nM | 0.0021 s⁻¹ | 265000 M⁻¹ s⁻¹ | 0.05 OD450 | 0.06 OD450 | 0.11 OD450 | 0.46 OD450 | 0.83 OD450 | 0.81 OD450 | 1.24 OD450 | 0.23 nM | 6210 MFI
F1.110.24 (antibody, human IgG1, kappa, V domains shown, Human-murine chimeric antibody) VH: EVKLVESGGGLVQPGGSLKLSCAASGFTFSDFYMYWVRQTPEKRLEWVAFISNGGGSTYYPDTVKGRFTISRDNVKNTLYLQMSRLKSEDTAMYYCARPDTSWFAYWGQGSLVTVSA VL: DIQMTQTTSSLSASLGDRVTISCRASQDIDNYLNWYQQKPDGTVKVLISYTSRLHSGVPSRFSGSGSGTDYSLTISNLEQEDIATYFCQQGNTLPWTFGGGTKLEIKR | 1.38 nM | 0.000342 s⁻¹ | 248000 M⁻¹ s⁻¹ | 2.5 nM | 0.000362 s⁻¹ | 145000 M⁻¹ s⁻¹ | 0.05 OD450 | 0.05 OD450 | 0.06 OD450 | 0.29 OD450 | 0.31 OD450 | 0.47 OD450 | 0.41 OD450 | 0.42 nM | 5560 MFI
F1.21.8 (antibody, human IgG1, kappa, V domains shown, Human-murine chimeric antibody) VH: EVQLQQSGPELVKPGASVKISCKTSGFLFTGHYMHWVKSSHGNILDWIGYIYPYNAISFYNQKFKGKATLTVDKSSNTAYMELRSLTSEDSAVYYCARGDYGNYVTAYWGQGTLVTVSA VL: DVLMTQTPLSLPVSLGDQASISCRSSQSIVHSSGNTYLEWYLQKPGQSPKLLIYKVSNRFSGVPDRFSGSGSGTDFTLKISRVEAEDLGVYYCFQGSHLPWTFGGGTKLDIKR | 0.1 nM | 4.65e-05 s⁻¹ | 464000 M⁻¹ s⁻¹ | 0.271 nM | 6.91e-05 s⁻¹ | 255000 M⁻¹ s⁻¹ | 0.05 OD450 | 0.06 OD450 | 0.12 OD450 | 0.51 OD450 | 1 OD450 | 1.11 OD450 | 1.49 OD450 | 0.29 nM | 6320 MFI
F1.111.11 (antibody, human IgG1, kappa, V domains shown, Human-murine chimeric antibody) VH: EVQLQQSGPELVKPGASVKISCKASGYTFTDYYMNWVKQSHGKSLEWIGDIYPNNGDTTYNQRFKGKATLTVDKSSSTAYMELRSLASEDSAVYYCACPYNNPFGYWGQGTLVTVSA VL: DVVMTQTPLSLPVSLGDQASISCRSSQSLVHSNGNTYLHWYLQKPGQSPKLLIYKVSNRFSGVPDRFSGSGSGTDFTLKISRVEAEDLGVYFCSQSTHVPWTFGGGTKLEIKR | 4.67 nM | 0.000447 s⁻¹ | 95800 M⁻¹ s⁻¹ | 6.75 nM | 0.000445 s⁻¹ | 65800 M⁻¹ s⁻¹ | 0.06 OD450 | 0.11 OD450 | 0.53 OD450 | 1.91 OD450 | 2.57 OD450 | 2.62 OD450 | 2.66 OD450 | 0.42 nM | 4450 MFI
F1.2.14 (antibody, human IgG1, kappa, V domains shown, Human-murine chimeric antibody) VH: RVQLQQSGAELVKPGASVRMSCKASGYTFTAYSIEWMKQNLGKSLEWIGNFRPYNDDTKYNENFKGRATLTVEKSSATVYLELSRLTSDDSAVYYCARSGPTDYFDYWGQGTTLIVSS VL: DIQMTQSPASLSASVGETVTITCRASDNIYSYLAWYQQKQGQSPQLLVYNAKTLAEGVPSRFSGSGSVTQFSLKIISLQPEDFGTYYCQHHFGTPRTFGGGTKLEIKR | 1.25 nM | 0.000156 s⁻¹ | 125000 M⁻¹ s⁻¹ | 2.37 nM | 0.00017 s⁻¹ | 71600 M⁻¹ s⁻¹ | 0.05 OD450 | 0.05 OD450 | 0.07 OD450 | 0.27 OD450 | 0.86 OD450 | 1.03 OD450 | 1.55 OD450 | 1.1 nM | 4740 MFI
F1.57.21 (antibody, human IgG1, kappa, V domains shown, Human-murine chimeric antibody) VH: QVQLQQSGAELARPGASVKLSCKASGYTFTSYGISWVKQITGQGLEWIGEIYPRSESTYYNEKFKGKATLTADKSSSTAYMELRSLTSEDSAVYFCARDYGNIYSFAYWGQGTLVTVSA VL: DIQMTQSPASLSASVGETVTITCRTSENIYSYLAWYQQKQGKSPQLLVYNAKTLAEGVPSRFSGSGSGTQFSLKINSLQPEDFGSYYCQHHYGTPLTFGAGTKLELKR | 13 nM | 0.00306 s⁻¹ | 236000 M⁻¹ s⁻¹ | 21.3 nM | 0.00278 s⁻¹ | 131000 M⁻¹ s⁻¹ | 0.05 OD450 | 0.06 OD450 | 0.14 OD450 | 0.77 OD450 | 1.68 OD450 | 2.15 OD450 | 2.3 OD450 | 0.77 nM | 5380 MFI
F1.78.24 (antibody, human IgG1, kappa, V domains shown, Human-murine chimeric antibody) VH: QVQLQQSGAELVKPGASVKMSCKASGYTFTTYPIEWMKQNHGKSLEWIGNFHPYNDDTNYNVKFKGKATLTVEKSSSTVYLELSRLTSDDSALYYCARRREYYGSFDVWGTGTTVTVSS VL: not shown | 3.26 nM | 0.000639 s⁻¹ | 196000 M⁻¹ s⁻¹ | 7.06 nM | 0.00075 s⁻¹ | 106000 M⁻¹ s⁻¹ | 0.05 OD450 | 0.06 OD450 | 0.17 OD450 | 0.55 OD450 | 0.73 OD450 | 0.21 OD450 | 0.37 OD450 | 0.33 nM | 6580 MFI
F1.92.17 (antibody, human IgG1, kappa, V domains shown, Human-murine chimeric antibody) VH: EVQLQQSGPELVKPGASVKMSCKASGYTFTDYNMHWVRQSHGKSLEWIGYINPNNGDTIYNQNFKGKATLTVNKSSSTAYMELRSLTSEDSAVYYCSRTITYYYSMDYWGPGTSVTVSS VL: QIVLTQSPALMSASPGEKVTMTCSASSSVSYMYWYQQKPRSSPKPWIYLTSNLASGVPARFSGSGSGTSYSLTISSMEAEDAATYYCQQWSSNPLTFGAGTKLELKR | 5.07 nM | 0.000139 s⁻¹ | 27400 M⁻¹ s⁻¹ | 7.46 nM | 0.00017 s⁻¹ | 22800 M⁻¹ s⁻¹ | 0.05 OD450 | 0.05 OD450 | 0.06 OD450 | 0.15 OD450 | 0.64 OD450 | 0.62 OD450 | 0.58 OD450 | 2.26 nM | 5520 MFI
